Measurements reported in paper PMC6163214, “Etoposide-Induced Apoptosis in Cancer Cells Can Be Reinforced by an Uncoupled Link between Hsp70 and Caspase-3” (International Journal of Molecular Sciences, 2018).

Experiments:
Hsp70 = biological target: T1, Hsp70 (Homo sapiens, UniProt P0DMV8); assay: microscale thermophoresis with NT-647-labeled purified Hsp70; supported by DARTS and substrate-binding assay
T1 construct: gene HSPA1A

[1] = biological target: Caspase-3 (human (endogenous in U-937)) (UniProt P42574); assay: co-IP; as a4, but biotinylated Hsp70 pretreated with 32 µM BT44
Chain of Caspase-3 (human (endogenous in U-937)) (P42574 whole entry): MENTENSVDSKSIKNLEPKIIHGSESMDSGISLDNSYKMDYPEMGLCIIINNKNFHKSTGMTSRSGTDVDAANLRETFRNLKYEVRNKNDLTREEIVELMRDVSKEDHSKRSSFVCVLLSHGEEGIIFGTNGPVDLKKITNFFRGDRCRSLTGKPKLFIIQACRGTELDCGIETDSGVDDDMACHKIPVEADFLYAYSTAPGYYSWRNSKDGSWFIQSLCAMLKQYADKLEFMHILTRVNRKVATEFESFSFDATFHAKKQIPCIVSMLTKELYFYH

[2] = biological target: Caspase-3 (human (endogenous in U-937)) (UniProt P42574); assay: ELISA; same competitive protein-protein interaction assay, read as competition: cellular Hsp70 of the lysate (raised by heat shock or hsp70 transfection) holds Caspase-3 of the lysate away from the immobilised pure Hsp70

Chain of Cellular Hsp70 of U-937 cells (P0DMV8 whole entry): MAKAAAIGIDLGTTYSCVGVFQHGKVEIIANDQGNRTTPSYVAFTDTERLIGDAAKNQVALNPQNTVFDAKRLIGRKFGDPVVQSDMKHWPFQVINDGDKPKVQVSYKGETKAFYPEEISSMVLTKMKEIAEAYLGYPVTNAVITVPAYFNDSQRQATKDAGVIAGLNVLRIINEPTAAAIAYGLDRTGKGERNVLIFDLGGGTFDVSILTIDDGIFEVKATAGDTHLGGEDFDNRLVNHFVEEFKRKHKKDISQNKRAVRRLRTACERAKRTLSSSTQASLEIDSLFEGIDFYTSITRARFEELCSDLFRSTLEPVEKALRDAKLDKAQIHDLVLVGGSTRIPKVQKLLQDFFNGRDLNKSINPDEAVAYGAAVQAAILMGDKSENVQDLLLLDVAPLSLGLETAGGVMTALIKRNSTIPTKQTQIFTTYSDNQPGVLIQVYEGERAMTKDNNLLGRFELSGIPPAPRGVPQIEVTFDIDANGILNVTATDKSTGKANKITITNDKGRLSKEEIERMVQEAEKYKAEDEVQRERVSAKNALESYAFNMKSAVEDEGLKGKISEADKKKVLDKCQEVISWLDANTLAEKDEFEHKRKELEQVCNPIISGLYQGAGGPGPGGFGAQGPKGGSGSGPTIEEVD
T1 sequence (P0DMV8 2-641): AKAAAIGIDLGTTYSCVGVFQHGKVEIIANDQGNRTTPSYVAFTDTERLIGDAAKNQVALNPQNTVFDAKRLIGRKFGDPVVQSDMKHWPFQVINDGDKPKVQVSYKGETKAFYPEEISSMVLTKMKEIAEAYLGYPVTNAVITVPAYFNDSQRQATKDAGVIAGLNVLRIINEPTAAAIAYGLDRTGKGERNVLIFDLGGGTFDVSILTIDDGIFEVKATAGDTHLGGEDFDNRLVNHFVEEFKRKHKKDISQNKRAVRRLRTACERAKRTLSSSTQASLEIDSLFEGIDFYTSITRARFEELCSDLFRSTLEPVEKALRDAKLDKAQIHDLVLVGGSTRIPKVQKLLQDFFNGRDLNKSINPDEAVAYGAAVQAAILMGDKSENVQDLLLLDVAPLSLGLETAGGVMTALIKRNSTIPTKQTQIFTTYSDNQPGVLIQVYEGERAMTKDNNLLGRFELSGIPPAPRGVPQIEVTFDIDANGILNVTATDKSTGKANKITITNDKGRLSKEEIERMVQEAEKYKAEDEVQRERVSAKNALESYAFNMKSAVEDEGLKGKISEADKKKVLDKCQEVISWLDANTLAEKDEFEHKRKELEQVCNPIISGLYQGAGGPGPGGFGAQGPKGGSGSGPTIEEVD
Chain of Biotinylated Hsp70 (P0DMV8 whole entry): as the sequence (P0DMV8 whole entry) above

**Q.** For `CCc1cc(-c2n[nH]cc2-c2ccc3c(c2)OCO3)c(O)cc1OC1OC(CO)C(O)C(O)C1O` (stereo not drawn) [BT44, 2-[4-(4-Benzo[1,3]dioxol-5-yl-1H-pyrazol-3-yl)-2-ethyl-5-hydroxy-phenoxy]-6-hydroxymethyl-tetrahydro-pyran-3,4,5-triol], which Kd (Hsp70) is on record?
**A.** 5.2 ± 0.3 µM

**Q.** “Biotinylated Hsp70 (from UniProt P0DMV8 1-641) (natural protein)” was tested. Which fold lower amount bound with BT44 than without BT44 [1] did it give?
**A.** 10 fold

**Q.** For “Cellular Hsp70 of U-937 cells (from UniProt P0DMV8 1-641) (natural protein)”, which percent decrease of Caspase-3 bound to immobilized Hsp70 (against U-937wt cells treated with etoposide alone) [2] is on record?
**A.** 35 to 50%
